In patent US20230391826A1 (SANFORD BURNHAM PREBYS MEDICAL DISCOVERY INSTITUTE, published 2023):
Where no end group is shown, it is not given here. [ ]: non-standard residue; d: D form. The star is where a group is joined. Biotin = O=C1N[C@H]2[C@H](CS[C@H]2CCCCC(=O)*)N1; βAla = NCCC(=O)O; Cam = NC(=O)C*

B1: βA-WLA-YRPKC dimer (C-ter) (peptide)
peptide: [βAla]WLAYPDSVPYRPKC
modifications: also: homodimer, disulfide at 15, other end not in the chain
notes: C-terminally disulfide-linked homodimer made from monomer (19*); also called dimer (2); dimeric peptide (2)
B2: CGA-WLA-YR dimer (N-ter) (peptide)
peptide: CGAWLAYPDSVPYR
modifications: also: homodimer: N-terminal Cys of two chains joined by disulfide
notes: N-terminally disulfide-linked homodimer made from monomer (15*); also called dimer (4)
B3: βA-WLA-YGSGC dimer (C-ter) (peptide)
peptide: [βAla]WLAYPDSVPYGSGC
modifications: also: homodimer, disulfide at 15, other end not in the chain
notes: C-terminally disulfide-linked homodimer made from monomer (9*); also called dimer (1); dimeric peptide (1)
B4: CcamGA-WLA-YRPK-bio (peptide)
peptide: C(Cam)GAWLAYPDSVPYRPK(Biotin)
notes: also called monomer (10); monomeric peptide (10)
B5: Lys-linked dimer (C-ter) (peptide)
peptide 1: [βAla]WLAYPDSVPYRPKK
peptide 2: [βAla]WLAYPDSVPYRPK
modifications: also: bond at chain A 15 to a chain's C-terminus
B6: linear dimer (head-to-tail) (peptide)
peptide: [βAla]WLAYPDSVPYRPKGGAWLAYPDSVPYRPK-NH2
modifications: N-terminus assumed
SMILES: CC(C)C[C@H](NC(=O)[C@H](Cc1c[nH]c2ccccc12)NC(=O)CCN)C(=O)N[C@@H](C)C(=O)N[C@@H](Cc1ccc(O)cc1)C(=O)N1CCC[C@H]1C(=O)N[C@@H](CC(=O)O)C(=O)N[C@@H](CO)C(=O)N[C@H](C(=O)N1CCC[C@H]1C(=O)N[C@@H](Cc1ccc(O)cc1)C(=O)N[C@@H](CCCNC(=N)N)C(=O)N1CCC[C@H]1C(=O)N[C@@H](CCCCN)C(=O)NCC(=O)NCC(=O)N[C@@H](C)C(=O)N[C@@H](Cc1c[nH]c2ccccc12)C(=O)N[C@@H](CC(C)C)C(=O)N[C@@H](C)C(=O)N[C@@H](Cc1ccc(O)cc1)C(=O)N1CCC[C@H]1C(=O)N[C@@H](CC(=O)O)C(=O)N[C@@H](CO)C(=O)N[C@H](C(=O)N1CCC[C@H]1C(=O)N[C@@H](Cc1ccc(O)cc1)C(=O)N[C@@H](CCCNC(=N)N)C(=O)N1CCC[C@H]1C(=O)N[C@@H](CCCCN)C(N)=O)C(C)C)C(C)C
B7: Click dimer (N-ter) (peptide)
peptide 1: KAWLAYPDSVPYRPK
peptide 2: XGAWLAYPDSVPYRPK
modifications: not fully specified; propargylglycine (Pra) at position 1, joined by a click linkage to KN3 of the other chain; C-terminal amide; azido-lysine (KN3) at position 1, joined by a click linkage to Pra of the other chain; C-terminal amide
B8: CGA-WLA-YRPKam dimer (N-ter) (peptide)
peptide: CGAWLAYPDSVPYRPK-NH2
modifications: also: homodimer: N-terminal Cys of two chains joined by disulfide
B9: L223R/L254R/V255R (receptor)
chain: AQGKEVVLLDFAAAGGELGWLTHPYGKGWDLMQNIMNDMPIYMYSVCNVMSGDQDNWLRTNWVYRGEAERIFIELKFTVRDCNSFPGGASSCKETFNLYYAESDLDYGTNFQKRLFTKIDTIAPDEITVSSDFEARHVKLNVEERSVGPLTRKGFYLAFQDIGACVALLSVRVYYKKCPELLQGLAHFPETIAGSDAPSRATVAGTCVDHAVVPPGGEEPRMHCAVDGEWRRPIGQCLCQAGYEKVEDACQACSPGFFKFEASESPCLECPEHTLPSPEGATSCECEEGFFRAPQDPASMPCTRPPSAPHYLTAVGMGAKVELRWTPPQDSGGREDIVYSVTCEQCWPESGECGPCEASVRYSEPPHGLTRTSVTVSDLEPHMNYTFTVEARNGVSGLVTSRSFRTASVSINQTEPPKVRLEGRSTTSLSVSWSIPPPQQSRVWKYEVTYRKKGDSNSYNVRRTEGFSVTLDDLAPDTTYLVQVQALTQEGQGAGSKVHEFQTLSPEGSGNLAVIGGVAVGVVLLLVLAGVGFFIHRRRKNQRARQSPEDVYFSKSEQLKPLKTYVDPHTYEDPNQAVLKFTTEIHPSCVTRQKVIGAGEFGEVYKGMLKTSSGKKEVPVAIKTLKAGYTEKQRVDFLGEAGIMGQFSHHNIIRLEGVISKYKPMMIITEYMENGALDKFLREKDGEFSVLQLVGMLRGIAAGMKYLANMNYVHRDLAARNILVNSNLVCKVSDFGLSRVLEDDPEATYTTSGGKIPIRWTAPEAISYRKFTSASDVWSFGIVMWEVMTYGERPYWELSNHEVMKAINDGFRLPTPMDCPSAIYQLMMQCWQQERARRPKFADIVSILDKLIRAPDSLKTLADFDPRVSIRLPSTSGSEGVPFRTVSEWLESIKMQQYTEHFMAAGYTAIEKVVQMTNDDIKRIGVRLPGHQKRIAYSLLGLKDQVNTVGIPI
modifications: Carries mTURQ (donor) or EYFP (acceptor) at the C-terminus. The tag is not in the letters.
notes: mutant of m18 used in the FRET experiments; also called EphA2 L223R/L254R/V255R; clustering interface mutant; not shown: C-terminal fluorescent protein (mTURQ or EYFP) and any linker to it
B10: YSA-GSGSK-bio (peptide)
peptide: YSAYPDSVPMMSGSGSK(Biotin)
notes: Previously identified monomer, included for comparison; also called monomer (2*); 2*

Molecular target: T1, EphA2 ligand binding domain (EphA2 LBD), residues 28-200 (UniProt P29317 28-200)
T1 construct: range 28-200; Expressed in E. coli; also called soluble EphA2 LBD; soluble monomeric EphA2 LBD
T1 sequence (P29317 other isoform, or with tags, fused parts or gaps limits assumed, form in doubt): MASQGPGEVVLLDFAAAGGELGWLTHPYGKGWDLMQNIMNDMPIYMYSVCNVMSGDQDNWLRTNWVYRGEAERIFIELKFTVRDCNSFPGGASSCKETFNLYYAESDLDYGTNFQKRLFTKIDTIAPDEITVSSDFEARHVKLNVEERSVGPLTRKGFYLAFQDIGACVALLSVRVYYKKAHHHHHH
Experiment: ITC, EphA2 LBD (200-250 µM) titrated into 10-12.5 µM peptide; single titration shown

Row | Binder | Kd [nM]
1 | B1 | 329

Molecular target: T1, EphA2 ligand binding domain (EphA2 …)
Experiment: as above
Remark: another data set of the same source

Row | Binder | Kd [nM]
2 | B2 | 103

Molecular target: T1, EphA2 ligand binding domain (EphA2 …)
Experiment: ITC, soluble EphA2 LBD and peptide

Row | Binder | Kd [nM] | N (binding stoichiometry)
3 | B3 | 2900 | 1.7
4 | B2 | 104 | 2
5 | B1 | 380 | 2

Molecular target: T1, EphA2 ligand binding domain (EphA2 …)
Experiment: ITC, EphA2 LBD (200-250 µM) titrated into 10-12.5 µM peptide; single titration shown
Remark: another data set of the same source

Row | Binder | Kd [nM]
6 | B3 | 3760

Molecular target: T2, EphA2 extracellular domain fused to the Fc portion of an antibody (EphA2-Fc)
T2 construct: extracellular domain; Immobilized on the ELISA wells; also called immobilized EphA2
T2 sequence (P29317 whole entry, the tested form may be a part): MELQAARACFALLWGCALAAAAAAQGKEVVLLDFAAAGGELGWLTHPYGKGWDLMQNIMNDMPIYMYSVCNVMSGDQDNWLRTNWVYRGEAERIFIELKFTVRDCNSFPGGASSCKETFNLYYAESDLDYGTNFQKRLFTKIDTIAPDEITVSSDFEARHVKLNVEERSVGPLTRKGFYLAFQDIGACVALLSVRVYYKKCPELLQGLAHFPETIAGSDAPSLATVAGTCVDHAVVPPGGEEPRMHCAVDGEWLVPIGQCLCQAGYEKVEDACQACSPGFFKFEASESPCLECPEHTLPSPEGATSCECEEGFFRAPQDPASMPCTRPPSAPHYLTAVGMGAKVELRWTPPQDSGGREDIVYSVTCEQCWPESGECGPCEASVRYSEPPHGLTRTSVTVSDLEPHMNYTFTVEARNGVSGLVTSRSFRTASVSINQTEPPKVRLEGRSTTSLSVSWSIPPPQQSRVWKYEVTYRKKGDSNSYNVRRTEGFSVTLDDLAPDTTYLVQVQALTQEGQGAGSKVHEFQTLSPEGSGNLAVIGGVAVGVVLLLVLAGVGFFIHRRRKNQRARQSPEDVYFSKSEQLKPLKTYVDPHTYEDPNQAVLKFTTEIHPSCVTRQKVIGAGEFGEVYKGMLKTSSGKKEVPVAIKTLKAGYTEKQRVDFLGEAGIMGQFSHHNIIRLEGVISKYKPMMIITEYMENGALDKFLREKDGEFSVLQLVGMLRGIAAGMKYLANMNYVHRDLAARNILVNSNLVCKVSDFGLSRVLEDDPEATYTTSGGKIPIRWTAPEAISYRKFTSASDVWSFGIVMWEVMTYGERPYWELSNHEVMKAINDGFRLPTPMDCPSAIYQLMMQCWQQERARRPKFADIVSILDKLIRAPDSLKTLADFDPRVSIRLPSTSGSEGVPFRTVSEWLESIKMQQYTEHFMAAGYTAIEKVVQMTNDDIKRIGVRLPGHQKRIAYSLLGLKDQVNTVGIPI
Experiment: ELISA, inhibition of ephrinA5-AP binding to immobilized EphA2-Fc; representative experiment, triplicates
Procedure: FIG. 1A-1C illustrates an example of Potency and selectivity of EphA2-targeting dimeric peptides. […] The graphs show averages ±SD from triplicate measurements from a representative experiment. […] The 10 nM peptide concentration is outlined in red. […] Values are normalized to ephrin binding without peptide. The graphs show averages and SDs from triplicate measurements (with each measurement shown as a dot).

Row | Binder | IC50 [nM]
7 | B4 | 22

Molecular target: T2, EphA2 extracellular domain fused to the …
Experiment: as above
Remark: another data set of the same source

Row | Binder | IC50 [nM]
8 | B3 | 67
9 | B2 | 6.7
10 | B1 | 0.47

Molecular target: T1, EphA2 ligand binding domain (EphA2 …)
Experiment: ITC, soluble EphA2 LBD and peptide
Remark: another data set of the same source
Procedure: (§1) For ITC, all peptides are dissolved in DMSO and both the EphA2 LBD and the peptides are diluted to obtain a final buffer containing 9.5 mM HEPES, pH 7.9, 95 mM NaCl, and 5% DMSO. The experiments are carried out at 296 K (23° C.) using an ITC200 calorimeter (Microcal). Two-microliter aliquots of a peptide solution are injected into the cell containing 205 μL EphA2 LBD. 200-400 μM peptides are titrated into 20-40 μM EphA2 LBD. Experimental data are analyzed using the Origin software package (Microcal). The integrated values for the reaction heats are normalized to the amount of injected peptide after blank subtraction.

Row | Binder | -TΔS [kcal/mol] | Kd [nM] | N (binding stoichiometry) | ΔG [kcal/mol] | ΔH [kcal/mol]
11 | B3 | 16.3 | 2900 | 1.7 | -7.55 | -23.9
12 | B2 | 23.6 | 104 | 2 | -9.47 | -33.1
13 | B1 | 19.5 | 380 | 2 | -8.71 | -28.2
14 | B4 | 25.5 | – | 0.8 | – | -35.1

Molecular target: T2, EphA2 extracellular domain fused to the …
Experiment: ELISA, inhibition of ephrinA5-AP binding to immobilized EphA2-Fc

Row | Binder | IC50 [nM]
15 | B3 | 71
16 | B2 | 7.9
17 | B1 | 0.5

Molecular target: T3, EphA2 endogenously expressed on PC3 prostate cancer cells (UniProt P29317 24-976, limits assumed)
Experiment: cell-based or functional assay

Row | Binder | Blig (bias factor) | EC50 PY588 [nM] | Emax PY588 | IC50 PAKT [nM]
18 | B5 | 0.79 | 2.4 | 0.37 normalized to ephrinA1-Fc | 0.63
19 | B6 | 0.62 | 0.49 | 0.61 normalized to ephrinA1-Fc | 0.12
20 | B7 | 0.93 | 0.22 | 0.71 normalized to ephrinA1-Fc | 0.024
21 | B1 | 1.28 | 2.6 | 0.39 normalized to ephrinA1-Fc | 0.22
22 | B8 | 0.36 | 0.12 | 0.8 normalized to ephrinA1-Fc | 0.043

Molecular target: the molecule itself
Experiment: quantitative FRET between mTURQ- and EYFP-tagged EphA2 L223R/L254R/V255R in HEK293 cells, no ligand; self-association, monomer-dimer fit

Row | Binder | binding result
23 | B9 | binds

Molecular target: T2, EphA2 extracellular domain fused to the …
Experiment: ELISA, inhibition of ephrinA5-AP binding to immobilized EphA2-Fc
Remark: another data set of the same source

Row | Binder | IC50 [nM]
24 | B3 | 71
25 | B2 | 7.9
26 | B1 | 0.5
27 | B10 | 850

Molecular target: T1, EphA2 ligand binding domain (EphA2 …)
Experiment: ITC, soluble EphA2 LBD and peptide
Remark: another data set of the same source
Procedure: as §1

Row | Binder | Kd [nM] | N (binding stoichiometry)
28 | B3 | 2900 | 1.7
29 | B2 | 104 | 2
30 | B1 | 380 | 2
31 | B4 | – | 0.8

Molecular target: T3, EphA2 endogenously expressed on PC3 …
Experiment: cell-based or functional assay
Remark: another data set of the same source

Row | Binder | EC50 pAKT inhib [nM] | Etop pAKT inhib | Etop pY588 | βlig (bias factor) | EC50 pY588 [nM]
32 | B3 | 39 | 0.9 | 0.49 normalized to ephrinA1-Fc | 0.506 | –
33 | B2 | 0.53 | 0.9 | 0.94 normalized to ephrinA1-Fc | 0.47 | –
34 | B5 | 0.42 | 1 | 0.46 normalized to ephrinA1-Fc | 0.79 | 2.6
35 | B6 | 0.09 | 0.87 | 0.76 normalized to ephrinA1-Fc | 0.62 | 0.73
36 | B7 | 0.08 | 0.87 | 0.98 normalized to ephrinA1-Fc | 0.5 | 0.64
37 | B1 | 0.82 | 0.86 | 0.5 normalized to ephrinA1-Fc | 0.73 | 5.6
38 | B8 | 0.08 | 0.97 | 0.98 normalized to ephrinA1-Fc | 0.51 | 0.36
39 | B4 | – | 1.06 | 0.48 normalized to ephrinA1-Fc | 0.64 | –

Molecular target: T3, EphA2 endogenously expressed on PC3 …
Experiment: cell-based or functional assay
Remark: another data set of the same source

Row | Binder | agonistic potency (pY588), fold lower than the other dimers with similar configuration [fold]
40 | B3 | 10 to 60
41 | B2 | 10 to 60
